# Laboratory results published in US20110306125A1, “Protein Expression Methods” (Ironwood Pharmaceuticals, Inc., priority 2008, published 2011).
# Biological target: T1, GC-C receptor (Homo sapiens, UniProt P25092)
# T1 construct: production of intracellular cGMP using cultured human colon carcinoma T84 cells; endogenous in cells; host or cells: T84 human colon carcinoma cells
# Test: production of intracellular cGMP in cultured human colon carcinoma T84 cells (cGMP ELISA)
# Format: cell-based
# Details: intracellular cGMP by ELISA kit, compared with synthetic human uroguanylin, FIG. 8
# Procedure: The ability of polypeptides, variant polypeptides and other compounds to bind to and activate the intestinal GC-C receptor can be tested using the T84 human colon carcinoma cell line (American Type Culture Collection (Bethesda, Md.).
# Briefly, cells are grown to confluency in 24-well culture plates with a 1:1 mixture of Ham's F12 medium and Dulbecco's modified Eagle's medium (DMEM), supplemented with 5% fetal calf serum and are used at between passages 54 and 60.
# Monolayers of T84 cells in 24-well plates are washed twice with 1 ml/well DMEM, then incubated at 37° C. for 10 min with 0.45 ml DMEM containing 1 mM isobutylmethylxanthine (IBMX), a cyclic nucleotide phosphodiesterase inhibitor. Test polypeptides (50Tl) are then added and incubated for 30 minutes at 37° C. The media is aspirated and the reaction is terminated by the addition of ice cold 0.5 ml of 0.1N HCl. […] Cyclic GMP is measured by EIA according to procedures outlined in the Cayman Chemical Cyclic GMP EIA kit.
# The activity of the mature peptide was evaluated by the production of intracellular cGMP using cultured human colon carcinoma T84 cells, as described by Currie et al. (Pro. Natl. Acad. Sci. USA., 89:947-951, 1992). cGMP levels were subsequently measured using a cGMP ELISA kit (Cayman Chemical, Ann Arbor, Mich.) according to the manufacturer's protocol. […]
# T1 sequence (P25092 24-1073): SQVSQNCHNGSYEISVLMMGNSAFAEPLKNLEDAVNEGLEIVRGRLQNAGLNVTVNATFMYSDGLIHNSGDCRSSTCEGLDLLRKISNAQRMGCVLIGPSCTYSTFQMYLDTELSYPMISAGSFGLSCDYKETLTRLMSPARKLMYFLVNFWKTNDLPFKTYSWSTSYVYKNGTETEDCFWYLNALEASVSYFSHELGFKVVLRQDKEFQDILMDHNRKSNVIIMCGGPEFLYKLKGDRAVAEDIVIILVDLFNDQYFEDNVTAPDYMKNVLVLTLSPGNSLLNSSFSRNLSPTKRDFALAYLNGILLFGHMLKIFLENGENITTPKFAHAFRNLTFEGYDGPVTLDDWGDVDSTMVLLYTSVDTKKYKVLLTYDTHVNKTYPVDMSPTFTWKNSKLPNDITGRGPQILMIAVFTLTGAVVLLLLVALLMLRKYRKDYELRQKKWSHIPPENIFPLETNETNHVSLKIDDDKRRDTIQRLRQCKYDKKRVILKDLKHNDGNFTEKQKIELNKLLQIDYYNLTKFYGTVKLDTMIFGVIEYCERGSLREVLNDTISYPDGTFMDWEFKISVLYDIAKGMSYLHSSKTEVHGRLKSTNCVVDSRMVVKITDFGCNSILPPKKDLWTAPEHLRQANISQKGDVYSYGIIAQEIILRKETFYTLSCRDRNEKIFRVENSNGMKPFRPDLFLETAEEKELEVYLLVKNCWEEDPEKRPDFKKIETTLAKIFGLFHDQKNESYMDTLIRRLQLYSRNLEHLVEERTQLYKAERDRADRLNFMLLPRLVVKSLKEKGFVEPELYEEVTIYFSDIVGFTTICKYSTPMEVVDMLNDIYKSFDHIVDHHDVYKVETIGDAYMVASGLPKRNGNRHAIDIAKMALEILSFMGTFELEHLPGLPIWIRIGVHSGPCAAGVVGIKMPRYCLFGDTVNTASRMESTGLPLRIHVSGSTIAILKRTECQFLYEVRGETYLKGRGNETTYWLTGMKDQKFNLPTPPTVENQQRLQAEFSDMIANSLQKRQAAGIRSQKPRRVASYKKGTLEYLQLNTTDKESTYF
sequence,measurement,value
NDDCELCVNVACTGCL [mature UGN peptide],cGMP levels produced,comparable to those levels produced using synthetic human UGN
